Results as given in article PMC3782484.

Assays:
[1] = target: 5pGST, recombinant FbsA fragment 5p (one repeat) fused to GST (Streptococcus agalactiae strain COH1); test: SPR; BIAcore X; 5pGST or 6pGST (500 nM) captured on immobilized goat anti-GST antibody, GST alone in the reference cell; human Fng flowed at 2.92 nM to 750 nM, 20 µl/min; equilibrium analysis
[2] = target: 6pGST, recombinant FbsA fragment 6p (five repeats) fused to GST (Streptococcus agalactiae strain COH1); test: as above
[3] = target: 5pGST, recombinant FbsA fragment 5p (one repeat) fused to GST (Streptococcus agalactiae strain COH1); test: ELISA; 5pGST or 6pGST (500 ng/well) coated overnight at 4°C in 0.1 M carbonate buffer, blocked with 2% BSA, increasing amounts of human Fng; detected with mouse anti-human Fng IgG and peroxidase-conjugated rabbit anti-mouse IgG
[4] = target: 6pGST, recombinant FbsA fragment 6p (five repeats) fused to GST (Streptococcus agalactiae strain COH1); test: as above

## Human fibrinogen (from UniProt P02671 36-866; P02675 45-491; P02679 27-453) (complex)
[1]
  Kd: 27.5 nM
[2]
  Kd: 23 nM
[3]
  EC50: 31.2 nM
[4]
  EC50: 63 nM
